Numbering of substitutions follows the chain as printed.
T1: human TL1A extracellular domain with N-terminal HIS and FLAG tag (human, UniProt O95150 72-251)
T1 construct: the whole entry is named; also called TNFSF15
T1 sequence: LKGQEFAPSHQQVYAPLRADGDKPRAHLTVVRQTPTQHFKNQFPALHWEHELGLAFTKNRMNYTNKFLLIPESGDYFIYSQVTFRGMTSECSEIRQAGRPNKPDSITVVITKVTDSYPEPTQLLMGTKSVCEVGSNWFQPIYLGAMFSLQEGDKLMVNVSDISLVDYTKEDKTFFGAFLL

B1: 320-492 (antibody, human IgG1, name in Kabat numbering, V domains shown)
VH: QVQLVQSGAEVKKPGASVKVSCKASGYTFTSYDINWVRQAPGQGLEWMGWQNPNSGNTGYAQKFQGRVTMTADRSTSTAYMELSSLRSEDTAVYYCAREVPETAAFEYWGQGTLVTVSS
VL: QSVLTQPPSVSGAPGQRVTISCTSSSSDIGAGLGVHWYQQLPGTAPKLLIEGYYNRPSGVPDRFSGSKSGTSASLTITGLLPEDEGDYYCQSYDGTLSALFGGGTKLTVLG
notes: full-length human IgG1, lambda
B2: 320-503 (antibody, human IgG1, name in Kabat numbering, V domains shown)
VH: B1 VH with Q51L, N52W
VL: B1 VL
notes: as for B1
B3: 320-499 (antibody, human IgG1, name in Kabat numbering, V domains shown)
VH: B1 VH with Q51L, N52Q
VL: B1 VL
notes: as for B1
B4: 320-495 (antibody, human IgG1, name in Kabat numbering, V domains shown)
VH: B1 VH with Q51K
VL: B1 VL
notes: as for B1
B5: 320-502 (antibody, human IgG1, name in Kabat numbering, V domains shown)
VH: B1 VH with Q51L, N52K
VL: B1 VL
notes: as for B1
B6: 320-515 (antibody, human IgG1, name in Kabat numbering, V domains shown)
VH: B1 VH with Q51L, N54S
VL: B1 VL
notes: as for B1
B7: 320-509 (antibody, human IgG1, name in Kabat numbering, V domains shown)
VH: B1 VH with Q51L, P53H
VL: B1 VL
notes: as for B1
B8: 320-517 (antibody, human IgG1, name in Kabat numbering, V domains shown)
VH: B1 VH with Q51L, N54D
VL: B1 VL
notes: as for B1
B9: 320-505 (antibody, human IgG1, name in Kabat numbering, V domains shown)
VH: B1 VH with Q51L, P53A
VL: B1 VL
notes: as for B1
B10: 320-500 (antibody, human IgG1, name in Kabat numbering, V domains shown)
VH: B1 VH with Q51L, N52D
VL: B1 VL
notes: as for B1
B11: 320-506 (antibody, human IgG1, name in Kabat numbering, V domains shown)
VH: B1 VH with Q51L, P53S
VL: B1 VL
notes: as for B1
B12: 320-519 (antibody, human IgG1, name in Kabat numbering, V domains shown)
VH: B1 VH with Q51L, N54K
VL: B1 VL
notes: as for B1
B13: 320-493 (antibody, human IgG1, name in Kabat numbering, V domains shown)
VH: B1 VH with Q51D
VL: B1 VL
notes: as for B1
B14: 320-496 (antibody, human IgG1, name in Kabat numbering, V domains shown)
VH: B1 VH with Q51W
VL: B1 VL
notes: as for B1
B15: 320-518 (antibody, human IgG1, name in Kabat numbering, V domains shown)
VH: B1 VH with Q51L, N54H
VL: B1 VL
notes: as for B1
B16: 320-520 (antibody, human IgG1, name in Kabat numbering, V domains shown)
VH: B1 VH with Q51L, N54L
VL: B1 VL
notes: as for B1
B17: 320-504 (antibody, human IgG1, name in Kabat numbering, V domains shown)
VH: B1 VH with Q51L, N52Y
VL: B1 VL
notes: as for B1
B18: 320-507 (antibody, human IgG1, name in Kabat numbering, V domains shown)
VH: B1 VH with Q51L, P53Q
VL: B1 VL
notes: as for B1
B19: 320-511 (antibody, human IgG1, name in Kabat numbering, V domains shown)
VH: B1 VH with Q51L, P53L
VL: B1 VL
notes: as for B1
B20: 320-497 (antibody, human IgG1, name in Kabat numbering, V domains shown)
VH: B1 VH with Q51L, N52A
VL: B1 VL
notes: as for B1
B21: 320-513 (antibody, human IgG1, name in Kabat numbering, V domains shown)
VH: B1 VH with Q51L, P53Y
VL: B1 VL
notes: as for B1
B22: 320-501 (antibody, human IgG1, name in Kabat numbering, V domains shown)
VH: B1 VH with Q51L, N52H
VL: B1 VL
notes: as for B1
B23: 320-516 (antibody, human IgG1, name in Kabat numbering, V domains shown)
VH: B1 VH with Q51L, N54Q
VL: B1 VL
notes: as for B1
B24: 320-494 (antibody, human IgG1, name in Kabat numbering, V domains shown)
VH: B1 VH with Q51H
VL: B1 VL
notes: as for B1
B25: 320-512 (antibody, human IgG1, name in Kabat numbering, V domains shown)
VH: B1 VH with Q51L, P53W
VL: B1 VL
notes: as for B1
B26: 320-514 (antibody, human IgG1, name in Kabat numbering, V domains shown)
VH: B1 VH with Q51L, N54A
VL: B1 VL
notes: as for B1
B27: 320-510 (antibody, human IgG1, name in Kabat numbering, V domains shown)
VH: B1 VH with Q51L, P53K
VL: B1 VL
notes: as for B1
B28: 320-508 (antibody, human IgG1, name in Kabat numbering, V domains shown)
VH: B1 VH with Q51L, P53D
VL: B1 VL
notes: as for B1
B29: 320-498 (antibody, human IgG1, name in Kabat numbering, V domains shown)
VH: B1 VH with Q51L, N52S
VL: B1 VL
notes: as for B1

Target: T1, human TL1A extracellular domain with …
Test: SPR Run 7, antibody on Protein A, TL1A 5 ug/mL, timepoint 44
Text: (§1) 1.5. Antibody expression and antigen binding as determined by SPR. Using a CM5 sensor chip (GE Healthcare) Protein A (Pierce) was coupled to the chip surface using an amine coupling kit (GE Healthcare). Protein A was coupled on flow cell 1 and 2 (or alternatively 3 and 4) using a BIACORE® T200. […] The amount of supernatant or purified protein (as well as the concentration) injected during the capture stage varied between runs and is specified in the header of the Tables 3-11. At the end of injection of the supernatant or purified antibody the change in response units was measured. This value was reported as Capture Level in Tables 3-11. […] The response units were measured prior to the end of the dissociation phase. […] The sensorgrams were double referenced (flow cell 2 is subtracted from flow cell 1 and a buffer blank). As there were a large number of antibody variants to screen, these were screened across different runs (Tables 3-11). […] A summary of the conditions used in each run is below:
(§2) 2.1. […] In some experiment the antibodies were purified using Protein A chromatography (See 1.4) and purified antibodies were used in BIACORE® (GE Healthcare) experiments.

| TL1A Binding Level (Early) | Binder |
| --- | --- |
| 89 RU | B1 |
| 41 RU | B2 |
| 122 RU | B3 |
| 84 RU | B4 |
| 88 RU | B5 |
| 73 RU | B6 |
| 52 RU | B7 |
| 55 RU | B8 |
| 118 RU | B9 |
| 69 RU | B10 |
| 97 RU | B11 |
| 217 RU | B12 |
| 48 RU | B13 |
| 93 RU | B14 |
| 169 RU | B15 |
| 174 RU | B16 |
| 88 RU | B17 |
| 27 RU | B18 |
| 106 RU | B19 |
| 135 RU | B20 |
| 99 RU | B21 |
| 118 RU | B22 |
| 92 RU | B23 |
| 150 RU | B24 |
| 126 RU | B25 |
| 96 RU | B26 |
| 44 RU | B27 |
| 19 RU | B28 |
| 90 RU | B29 |

Target: T1, human TL1A extracellular domain with …
Test: SPR Run 7, antibody on Protein A, TL1A 5 ug/mL, timepoint 220
Text: as §1, §2

| TL1A Binding Level (Late) | Binder |
| --- | --- |
| 82 RU | B1 |
| 6 RU | B2 |
| 113 RU | B3 |
| 77 RU | B4 |
| 59 RU | B5 |
| 67 RU | B6 |
| 47 RU | B7 |
| 50 RU | B8 |
| 110 RU | B9 |
| 53 RU | B10 |
| 89 RU | B11 |
| 196 RU | B12 |
| 46 RU | B13 |
| 87 RU | B14 |
| 153 RU | B15 |
| 162 RU | B16 |
| 65 RU | B17 |
| 24 RU | B18 |
| 98 RU | B19 |
| 125 RU | B20 |
| 90 RU | B21 |
| 108 RU | B22 |
| 86 RU | B23 |
| 138 RU | B24 |
| 118 RU | B25 |
| 88 RU | B26 |
| 33 RU | B27 |
| 12 RU | B28 |
| 82 RU | B29 |

— patent US20170081400A1 (CEPHALON, published 2017)
